In publication PMC10421740, “A universal deep-learning model for zinc finger design enables transcription factor reprogramming”:

What was measured:
[1] = molecular target: ZIM3 reprogrammed with array UBE4A T1R8 (synthetic construct, UniProt Q96PE6 1-166); assay: Zn; HEK293T, RT-qPCR 3 days after transfection
[2] = molecular target: T1, ZFN pair 20BC_selected + 20ED_selected (synthetic construct, UniProt P14870;P14870 384-579;384-579); assay: Zn; U2OS eGFP disruption, 3 days after nucleofection; settings: tags: N-terminal 3xFLAG and SV40 NLS (kept in the assay, left out here); copies: 1;1
T1 chain 1: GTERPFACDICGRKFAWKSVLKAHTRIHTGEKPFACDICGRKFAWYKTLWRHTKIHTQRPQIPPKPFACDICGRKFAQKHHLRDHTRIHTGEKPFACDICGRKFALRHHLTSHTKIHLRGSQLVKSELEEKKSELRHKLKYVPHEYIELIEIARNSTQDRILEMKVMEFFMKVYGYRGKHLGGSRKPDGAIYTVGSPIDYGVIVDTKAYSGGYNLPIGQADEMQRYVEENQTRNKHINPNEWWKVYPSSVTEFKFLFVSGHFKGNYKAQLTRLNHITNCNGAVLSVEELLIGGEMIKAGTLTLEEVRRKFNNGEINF
T1 chain 2: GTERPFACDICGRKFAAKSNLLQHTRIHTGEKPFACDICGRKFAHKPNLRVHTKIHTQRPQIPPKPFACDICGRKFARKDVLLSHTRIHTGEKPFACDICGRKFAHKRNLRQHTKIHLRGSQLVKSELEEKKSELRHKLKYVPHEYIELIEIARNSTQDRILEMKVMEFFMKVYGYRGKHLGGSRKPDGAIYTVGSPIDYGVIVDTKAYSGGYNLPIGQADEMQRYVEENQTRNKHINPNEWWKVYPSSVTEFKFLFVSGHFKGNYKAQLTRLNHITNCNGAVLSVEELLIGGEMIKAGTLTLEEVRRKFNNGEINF

[3] = molecular target: ZFN pair 20BC_designed + 20ED_designed (synthetic construct, UniProt P14870;P14870 384-579;384-579); assay: as above; settings: tags: N-terminal 3xFLAG and SV40 NLS (kept in the assay, left out here); copies: 1;1
[4] = molecular target: ZIM3 reprogrammed with array DPH1_201 (synthetic construct, UniProt Q96PE6 1-166); assay: Zn; HEK293T, RT-qPCR 3 days after transfection
ZIM3 reprogrammed with array DPH1_201, sequence (Q96PE6 other isoform, or with tags, fused parts or gaps): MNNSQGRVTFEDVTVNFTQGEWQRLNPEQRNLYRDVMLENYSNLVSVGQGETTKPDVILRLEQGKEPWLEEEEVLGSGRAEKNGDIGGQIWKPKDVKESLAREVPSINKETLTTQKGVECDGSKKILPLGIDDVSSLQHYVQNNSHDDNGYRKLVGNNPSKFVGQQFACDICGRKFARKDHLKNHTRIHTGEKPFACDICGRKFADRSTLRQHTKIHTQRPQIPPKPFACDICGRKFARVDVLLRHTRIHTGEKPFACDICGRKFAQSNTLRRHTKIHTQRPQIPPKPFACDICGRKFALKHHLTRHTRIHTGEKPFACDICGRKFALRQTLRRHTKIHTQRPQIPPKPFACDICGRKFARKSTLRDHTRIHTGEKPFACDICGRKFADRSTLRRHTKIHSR

[5] = molecular target: ZFN pair 1BC_selected + 1ED_selected (synthetic construct, UniProt P14870;P14870 384-579;384-579); assay: Zn; U2OS eGFP disruption, 3 days after nucleofection; settings: tags: N-terminal 3xFLAG and SV40 NLS (kept in the assay, left out here); copies: 1;1
[6] = molecular target: ZFN pair 1BC_design + 1ED_design (synthetic construct, UniProt P14870;P14870 384-579;384-579); assay: as above; settings: tags: N-terminal 3xFLAG and SV40 NLS (kept in the assay, left out here); copies: 1;1
[7] = molecular target: ZIM3 reprogrammed with array UBE4A T1F8 (synthetic construct, UniProt Q96PE6 1-166); assay: Zn; HEK293T, RT-qPCR 3 days after transfection
ZIM3 reprogrammed with array UBE4A T1F8, sequence (Q96PE6 other isoform, or with tags, fused parts or gaps): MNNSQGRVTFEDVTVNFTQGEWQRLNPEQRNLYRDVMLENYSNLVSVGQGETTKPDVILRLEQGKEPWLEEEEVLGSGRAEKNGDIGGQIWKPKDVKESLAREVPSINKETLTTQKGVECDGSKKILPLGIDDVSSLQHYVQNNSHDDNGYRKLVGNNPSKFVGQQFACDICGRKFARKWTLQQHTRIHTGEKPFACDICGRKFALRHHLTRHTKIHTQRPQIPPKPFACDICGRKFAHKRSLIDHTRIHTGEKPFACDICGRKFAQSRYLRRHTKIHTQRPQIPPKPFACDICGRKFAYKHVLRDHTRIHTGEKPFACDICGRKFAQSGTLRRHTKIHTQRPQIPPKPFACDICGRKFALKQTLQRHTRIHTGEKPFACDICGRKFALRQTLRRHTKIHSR

[8] = molecular target: ZFN pair 10BC_selected + 10ED_selected (synthetic construct, UniProt P14870;P14870 384-579;384-579); assay: Zn; U2OS eGFP disruption, 3 days after nucleofection; settings: tags: N-terminal 3xFLAG and SV40 NLS (kept in the assay, left out here); copies: 1;1
[9] = molecular target: ZFN pair 10BC_designed + 10ED_designed (synthetic construct, UniProt P14870;P14870 384-579;384-579); assay: as above; settings: tags: N-terminal 3xFLAG and SV40 NLS (kept in the assay, left out here); copies: 1;1
[10] = molecular target: ZFN pair 10BC_substituted + 10ED_substituted (synthetic construct, UniProt P14870;P14870 384-579;384-579); assay: as above; settings: tags: N-terminal 3xFLAG and SV40 NLS (kept in the assay, left out here); copies: 1;1
[11] = molecular target: ZIM3 reprogrammed with array DPH1T2F8 (synthetic construct, UniProt Q96PE6 1-166); assay: Zn; HEK293T, RT-qPCR 3 days after transfection
ZIM3 reprogrammed with array DPH1T2F8, sequence (Q96PE6 other isoform, or with tags, fused parts or gaps): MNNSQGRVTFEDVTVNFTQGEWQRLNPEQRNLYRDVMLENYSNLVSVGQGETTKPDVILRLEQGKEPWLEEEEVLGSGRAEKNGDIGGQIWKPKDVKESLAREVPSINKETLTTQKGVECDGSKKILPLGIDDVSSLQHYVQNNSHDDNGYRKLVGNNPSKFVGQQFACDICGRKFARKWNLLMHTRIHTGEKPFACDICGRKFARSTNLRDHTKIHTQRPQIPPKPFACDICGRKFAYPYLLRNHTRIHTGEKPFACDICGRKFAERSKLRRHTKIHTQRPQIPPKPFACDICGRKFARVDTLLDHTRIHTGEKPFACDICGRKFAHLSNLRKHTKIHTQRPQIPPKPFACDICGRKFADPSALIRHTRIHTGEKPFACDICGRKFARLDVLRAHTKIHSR

[12] = molecular target: ZIM3 reprogrammed with array DPH1_151 (synthetic construct, UniProt Q96PE6 1-166); assay: Zn; HEK293T, RT-qPCR 3 days after transfection
ZIM3 reprogrammed with array DPH1_151, sequence (Q96PE6 other isoform, or with tags, fused parts or gaps): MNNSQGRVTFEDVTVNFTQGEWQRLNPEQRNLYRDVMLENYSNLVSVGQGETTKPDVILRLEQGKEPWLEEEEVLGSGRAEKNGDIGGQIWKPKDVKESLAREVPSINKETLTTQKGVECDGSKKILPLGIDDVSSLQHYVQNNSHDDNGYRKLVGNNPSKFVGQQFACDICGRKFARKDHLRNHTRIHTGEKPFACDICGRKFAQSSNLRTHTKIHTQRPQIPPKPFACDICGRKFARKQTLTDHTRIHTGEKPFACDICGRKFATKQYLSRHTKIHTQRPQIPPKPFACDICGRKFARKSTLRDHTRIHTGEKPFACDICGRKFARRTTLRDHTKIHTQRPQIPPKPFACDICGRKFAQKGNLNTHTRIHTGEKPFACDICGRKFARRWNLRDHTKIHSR

[13] = molecular target: ZIM3 reprogrammed with array DPH1T2R8 (synthetic construct, UniProt Q96PE6 1-166); assay: Zn; HEK293T, RT-qPCR 3 days after transfection
ZIM3 reprogrammed with array DPH1T2R8, sequence (Q96PE6 other isoform, or with tags, fused parts or gaps): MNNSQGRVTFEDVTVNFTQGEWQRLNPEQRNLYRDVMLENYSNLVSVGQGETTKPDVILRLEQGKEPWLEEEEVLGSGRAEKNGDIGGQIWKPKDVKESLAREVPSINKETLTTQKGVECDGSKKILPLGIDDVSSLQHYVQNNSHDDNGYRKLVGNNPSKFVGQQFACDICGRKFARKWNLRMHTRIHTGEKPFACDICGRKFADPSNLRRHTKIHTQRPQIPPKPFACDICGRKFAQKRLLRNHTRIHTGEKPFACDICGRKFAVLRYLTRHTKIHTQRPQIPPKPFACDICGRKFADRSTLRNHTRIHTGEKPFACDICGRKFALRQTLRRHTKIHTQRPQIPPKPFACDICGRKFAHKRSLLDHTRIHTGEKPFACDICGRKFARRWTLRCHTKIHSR

[14] = molecular target: ZIM3 reprogrammed with array DPH1TSSR (synthetic construct, UniProt Q96PE6 1-166); assay: Zn; HEK293T, RT-qPCR 3 days after transfection
ZIM3 reprogrammed with array DPH1TSSR, sequence (Q96PE6 other isoform, or with tags, fused parts or gaps): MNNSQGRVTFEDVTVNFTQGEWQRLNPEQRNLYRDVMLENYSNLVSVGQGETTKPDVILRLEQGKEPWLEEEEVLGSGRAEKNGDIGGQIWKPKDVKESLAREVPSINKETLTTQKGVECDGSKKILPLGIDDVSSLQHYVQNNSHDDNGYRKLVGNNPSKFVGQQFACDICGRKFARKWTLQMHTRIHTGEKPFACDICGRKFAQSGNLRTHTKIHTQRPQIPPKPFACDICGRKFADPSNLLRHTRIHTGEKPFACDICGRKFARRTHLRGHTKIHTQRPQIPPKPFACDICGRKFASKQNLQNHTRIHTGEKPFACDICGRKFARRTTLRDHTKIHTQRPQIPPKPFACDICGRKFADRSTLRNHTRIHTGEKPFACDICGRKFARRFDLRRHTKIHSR

[15] = molecular target: ZIM3 reprogrammed with array DPH1_225 (synthetic construct, UniProt Q96PE6 1-166); assay: Zn; HEK293T, RT-qPCR 3 days after transfection
ZIM3 reprogrammed with array DPH1_225, sequence (Q96PE6 other isoform, or with tags, fused parts or gaps): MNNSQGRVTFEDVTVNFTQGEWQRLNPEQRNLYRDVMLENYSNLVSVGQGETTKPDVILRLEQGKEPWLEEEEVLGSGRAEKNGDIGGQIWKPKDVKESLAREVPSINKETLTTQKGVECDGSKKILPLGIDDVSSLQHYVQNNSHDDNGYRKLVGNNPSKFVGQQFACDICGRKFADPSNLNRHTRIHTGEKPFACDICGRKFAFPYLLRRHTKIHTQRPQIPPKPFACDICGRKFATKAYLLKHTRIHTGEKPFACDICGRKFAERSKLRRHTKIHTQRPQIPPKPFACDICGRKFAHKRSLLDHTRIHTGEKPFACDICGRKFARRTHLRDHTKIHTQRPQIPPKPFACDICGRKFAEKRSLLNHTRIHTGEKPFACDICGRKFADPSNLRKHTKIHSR

[16] = molecular target: KLF6 reprogrammed with array CDKN1C_125 F1-6 (synthetic construct, UniProt Q99612 1-199); assay: Zn; HEK293T, RT-qPCR 3 days after transfection
[17] = molecular target: KLF6 reprogrammed with array CDKN1C_125 (synthetic construct, UniProt Q99612 1-199); assay: Zn; HEK293T, RT-qPCR 3 days after transfection
[18] = molecular target: ZIM3 reprogrammed with array DPH1_15 (synthetic construct, UniProt Q96PE6 1-166); assay: Zn; HEK293T, RT-qPCR 3 days after transfection
ZIM3 reprogrammed with array DPH1_15, sequence (Q96PE6 other isoform, or with tags, fused parts or gaps): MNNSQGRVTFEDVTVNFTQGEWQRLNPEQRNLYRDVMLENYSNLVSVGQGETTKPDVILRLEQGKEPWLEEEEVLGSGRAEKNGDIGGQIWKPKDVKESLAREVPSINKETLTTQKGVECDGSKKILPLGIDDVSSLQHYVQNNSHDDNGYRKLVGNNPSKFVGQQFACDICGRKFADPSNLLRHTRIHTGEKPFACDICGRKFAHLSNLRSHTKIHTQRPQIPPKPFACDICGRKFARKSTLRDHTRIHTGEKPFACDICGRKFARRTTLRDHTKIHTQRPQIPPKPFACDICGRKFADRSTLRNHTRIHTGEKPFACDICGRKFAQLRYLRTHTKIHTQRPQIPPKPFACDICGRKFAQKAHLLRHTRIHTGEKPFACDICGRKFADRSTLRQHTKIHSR

[19] = molecular target: ZIM3 reprogrammed with array DPH1_15 F3-8 (synthetic construct, UniProt Q96PE6 1-166); assay: Zn; HEK293T, RT-qPCR 3 days after transfection
ZIM3 reprogrammed with array DPH1_15 F3-8, sequence (Q96PE6 other isoform, or with tags, fused parts or gaps): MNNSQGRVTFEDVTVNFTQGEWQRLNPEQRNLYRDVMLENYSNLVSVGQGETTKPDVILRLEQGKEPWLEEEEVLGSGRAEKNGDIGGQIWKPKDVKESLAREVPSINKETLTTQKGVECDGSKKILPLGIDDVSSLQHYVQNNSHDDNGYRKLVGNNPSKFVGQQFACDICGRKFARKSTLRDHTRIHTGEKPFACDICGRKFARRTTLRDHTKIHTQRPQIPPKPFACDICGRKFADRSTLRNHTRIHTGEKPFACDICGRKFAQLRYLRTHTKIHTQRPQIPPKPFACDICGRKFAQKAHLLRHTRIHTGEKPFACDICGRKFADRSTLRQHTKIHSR

[20] = molecular target: ZIM3 reprogrammed with array DPH1_15 F1-8 Q (synthetic construct, UniProt Q96PE6 1-166); assay: Zn; HEK293T, RT-qPCR 3 days after transfection
ZIM3 reprogrammed with array DPH1_15 F1-8 Q, sequence (Q96PE6 other isoform, or with tags, fused parts or gaps): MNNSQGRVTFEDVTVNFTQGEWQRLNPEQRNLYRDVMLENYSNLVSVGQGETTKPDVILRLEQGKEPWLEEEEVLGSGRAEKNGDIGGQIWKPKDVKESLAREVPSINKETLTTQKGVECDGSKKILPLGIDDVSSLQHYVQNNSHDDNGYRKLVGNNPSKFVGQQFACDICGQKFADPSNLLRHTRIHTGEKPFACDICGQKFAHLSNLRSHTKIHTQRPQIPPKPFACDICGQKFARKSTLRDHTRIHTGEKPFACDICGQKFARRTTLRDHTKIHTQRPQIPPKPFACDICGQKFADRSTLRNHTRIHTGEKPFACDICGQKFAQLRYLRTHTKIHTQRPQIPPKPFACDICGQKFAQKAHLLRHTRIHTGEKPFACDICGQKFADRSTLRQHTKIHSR

[21] = molecular target: ZIM3 reprogrammed with array DPH1_15 F1-6 (synthetic construct, UniProt Q96PE6 1-166); assay: Zn; HEK293T, RT-qPCR 3 days after transfection
[22] = molecular target: T2, KLF6 reprogrammed with array CDKN1C_200 F3-8 (synthetic construct, UniProt Q99612 1-199); assay: Zn; HEK293T, RT-qPCR 3 days after transfection
T2 chain: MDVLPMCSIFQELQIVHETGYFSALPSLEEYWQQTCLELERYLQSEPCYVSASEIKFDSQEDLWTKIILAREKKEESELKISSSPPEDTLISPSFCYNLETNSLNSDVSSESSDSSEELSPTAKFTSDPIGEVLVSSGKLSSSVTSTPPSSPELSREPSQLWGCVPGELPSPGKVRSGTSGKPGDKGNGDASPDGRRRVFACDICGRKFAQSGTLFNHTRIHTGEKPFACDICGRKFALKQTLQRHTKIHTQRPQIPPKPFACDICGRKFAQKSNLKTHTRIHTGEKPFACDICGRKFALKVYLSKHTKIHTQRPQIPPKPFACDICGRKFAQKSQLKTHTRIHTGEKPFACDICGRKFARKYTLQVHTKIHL

[23] = molecular target: T3, KLF6 reprogrammed with array CDKN1C_200 (synthetic construct, UniProt Q99612 1-199); assay: Zn; HEK293T, RT-qPCR 3 days after transfection
T3 chain: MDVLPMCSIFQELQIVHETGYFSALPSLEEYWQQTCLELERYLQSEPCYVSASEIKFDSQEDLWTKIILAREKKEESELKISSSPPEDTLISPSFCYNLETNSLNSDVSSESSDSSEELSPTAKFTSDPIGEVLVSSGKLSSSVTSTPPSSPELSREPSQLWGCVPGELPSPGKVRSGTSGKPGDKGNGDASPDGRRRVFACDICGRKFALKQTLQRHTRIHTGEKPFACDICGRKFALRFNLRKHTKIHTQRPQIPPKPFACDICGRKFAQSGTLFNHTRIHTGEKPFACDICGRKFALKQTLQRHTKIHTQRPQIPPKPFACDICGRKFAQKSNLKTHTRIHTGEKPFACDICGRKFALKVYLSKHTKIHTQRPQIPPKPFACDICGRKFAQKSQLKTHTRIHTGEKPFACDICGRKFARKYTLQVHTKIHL

[24] = molecular target: T4, KLF6 reprogrammed with array CDKN1C_200 8Q (synthetic construct, UniProt Q99612 1-199); assay: Zn; HEK293T, RT-qPCR 3 days after transfection; settings: tags: C-terminal linker + 3xFLAG (left out)
T4 chain: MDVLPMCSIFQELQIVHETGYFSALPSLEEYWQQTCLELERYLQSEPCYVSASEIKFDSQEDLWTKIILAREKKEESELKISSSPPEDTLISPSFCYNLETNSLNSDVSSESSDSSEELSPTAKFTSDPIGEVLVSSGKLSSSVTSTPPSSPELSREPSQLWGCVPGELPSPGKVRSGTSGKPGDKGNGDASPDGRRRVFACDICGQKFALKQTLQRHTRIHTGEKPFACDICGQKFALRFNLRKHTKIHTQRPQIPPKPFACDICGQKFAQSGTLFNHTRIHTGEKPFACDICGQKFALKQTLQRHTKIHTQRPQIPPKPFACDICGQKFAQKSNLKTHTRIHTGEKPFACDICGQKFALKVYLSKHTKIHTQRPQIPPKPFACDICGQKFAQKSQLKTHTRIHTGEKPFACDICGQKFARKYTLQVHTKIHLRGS

[25] = molecular target: ZIM3 reprogrammed with array Rab1a T2R8 (synthetic construct, UniProt Q96PE6 1-166); assay: Zn; HEK293T, RT-qPCR 3 days after transfection
ZIM3 reprogrammed with array Rab1a T2R8, sequence (Q96PE6 other isoform, or with tags, fused parts or gaps): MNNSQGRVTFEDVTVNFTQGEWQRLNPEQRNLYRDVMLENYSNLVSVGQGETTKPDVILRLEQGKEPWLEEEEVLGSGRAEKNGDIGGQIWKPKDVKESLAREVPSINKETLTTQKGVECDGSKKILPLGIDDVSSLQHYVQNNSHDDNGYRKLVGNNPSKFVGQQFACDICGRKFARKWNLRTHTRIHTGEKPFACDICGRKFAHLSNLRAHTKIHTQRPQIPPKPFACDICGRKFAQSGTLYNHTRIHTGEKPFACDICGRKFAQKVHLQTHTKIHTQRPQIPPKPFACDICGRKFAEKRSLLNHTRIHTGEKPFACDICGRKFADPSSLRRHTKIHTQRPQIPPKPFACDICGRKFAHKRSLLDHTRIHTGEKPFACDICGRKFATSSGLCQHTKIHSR

ZIM3 reprogrammed with array UBE4A T1R8, sequence (Q96PE6 other isoform, or with tags, fused parts or gaps): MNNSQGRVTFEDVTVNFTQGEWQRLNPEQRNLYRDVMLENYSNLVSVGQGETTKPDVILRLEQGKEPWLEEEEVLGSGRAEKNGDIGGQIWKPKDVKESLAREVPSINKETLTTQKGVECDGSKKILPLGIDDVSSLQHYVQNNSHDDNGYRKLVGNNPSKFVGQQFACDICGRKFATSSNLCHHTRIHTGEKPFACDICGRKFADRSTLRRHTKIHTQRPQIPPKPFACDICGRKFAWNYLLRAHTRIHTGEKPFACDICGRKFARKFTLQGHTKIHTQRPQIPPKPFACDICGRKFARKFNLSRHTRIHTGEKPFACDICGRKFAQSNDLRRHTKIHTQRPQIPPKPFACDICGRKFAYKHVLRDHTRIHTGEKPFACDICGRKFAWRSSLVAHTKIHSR

B1: UBE4A T1R8 (dsDNA)
DNA 1: TGTCTTACCAGAGCCTGAAGTGCCAGCA
DNA 2: TGCTGGCACTTCAGGCTCTGGTAAGACA
binding signal [1]: ~0.22 relative expression (lower = more activity, repressor)

B2: eGFP site 20 (8 fingers) (dsDNA)
DNA 1: GAAGGGCATCGACTTCAAGGAGGACGGCAACATC
DNA 2: GATGTTGCCGTCCTCCTTGAAGTCGATGCCCTTC
binding signal [2]: ~69 % GFP-negative cells (higher = more activity) | binding signal [3]: ~17 % GFP-negative cells (higher = more activity)

B3: DPH1_201 (dsDNA)
DNA 1: ACCCCGAGCTGGTGACAGCGGCCCAAGG
DNA 2: CCTTGGGCCGCTGTCACCAGCTCGGGGT
binding signal [4]: ~0.43 relative expression (lower = more activity, repressor)

B4: eGFP site 1 (8 fingers) (dsDNA)
DNA 1: TGTTCACCGGGGTGGTGCCCATCCTGGTCGAGCT
DNA 2: AGCTCGACCAGGATGGGCACCACCCCGGTGAACA
binding signal [5]: ~53 % GFP-negative cells (higher = more activity) | binding signal [6]: ~35 % GFP-negative cells (higher = more activity)

B5: UBE4A T1F8 (dsDNA)
DNA 1: GCTGCTGGCACTTCAGGCTCTGGTAAGA
DNA 2: TCTTACCAGAGCCTGAAGTGCCAGCAGC
binding signal [7]: ~0.57 relative expression (lower = more activity, repressor)

B6: eGFP site 10 (8 fingers) (dsDNA)
DNA 1: TACGGCAAGCTGACCCTGAAGTTCATCTGCACCA
DNA 2: TGGTGCAGATGAACTTCAGGGTCAGCTTGCCGTA
binding signal [8]: ~59 % GFP-negative cells (higher = more activity) | binding signal [9]: ~28 % GFP-negative cells (higher = more activity) | binding signal [10]: ~38 % GFP-negative cells (higher = more activity)

B7: DPH1T2F8 (dsDNA)
DNA 1: CTGGTCGTATCCGGGGCAGCGGAGCAGG
DNA 2: CCTGCTCCGCTGCCCCGGATACGACCAG
binding signal [11]: ~0.67 relative expression (lower = more activity, repressor)

B8: DPH1_151 (dsDNA)
DNA 1: GAGAAAGGCGCCGCCGCCGTTAAAGGGG
DNA 2: CCCCTTTAACGGCGGCGGCGCCTTTCTC
binding signal [12]: ~0.7 relative expression (lower = more activity, repressor)

B9: DPH1T2R8 (dsDNA)
DNA 1: CTGCTCCGCTGCCCCGGATACGACCAGC
DNA 2: GCTGGTCGTATCCGGGGCAGCGGAGCAG
binding signal [13]: ~0.77 relative expression (lower = more activity, repressor)

B10: DPH1TSSR (dsDNA)
DNA 1: CCTGCCTGCGCATGTGGTACTAAAAAGA
DNA 2: TCTTTTTAGTACCACATGCGCAGGCAGG
binding signal [14]: ~0.58 relative expression (lower = more activity, repressor)

B11: DPH1_225 (dsDNA)
DNA 1: TACCCCTGGGCTCCGGCTGACAGCGACC
DNA 2: GGTCGCTGTCAGCCGGAGCCCAGGGGTA
binding signal [15]: ~0.62 relative expression (lower = more activity, repressor)

B12: CDKN1C_125 (dsDNA)
DNA 1: GCCAATGGGCGGTGCGCGGGGGCCGGGC
DNA 2: GCCCGGCCCCCGCGCACCGCCCATTGGC
binding signal [16]: ~16.5 relative expression (higher = more activity) | binding signal [17]: ~43 relative expression (higher = more activity)

B13: DPH1_15 (dsDNA)
DNA 1: CCCGGATACGACCAGCGCCGCCATCACC
DNA 2: GGTGATGGCGGCGCTGGTCGTATCCGGG
binding signal [18]: ~0.13 relative expression (lower = more activity, repressor) | binding signal [19]: ~0.12 relative expression (lower = more activity, repressor) | binding signal [20]: ~0.67 relative expression (lower = more activity, repressor) | binding signal [21]: ~0.62 relative expression (lower = more activity, repressor)

B14: CDKN1C_200 (dsDNA)
DNA 1: TTGAAACTGAAAATACTACATTATGCTA
DNA 2: TAGCATAATGTAGTATTTTCAGTTTCAA
binding signal [22]: ~3.2 relative expression (higher = more activity) | binding signal [23]: ~17 relative expression (higher = more activity) | binding signal [24]: ~11 relative expression (higher = more activity)

B15: Rab1a T2R8 (dsDNA)
DNA 1: CTACTCCGTCCCCTAGAACACAATCAGC
DNA 2: GCTGATTGTGTTCTAGGGGACGGAGTAG
binding signal [25]: ~0.41 relative expression (lower = more activity, repressor)
